# US20110065645A1, “Compositions and Methods for Modulating Neuron Degeneration and Neuron Guidance” (The Regents of the University of California, priority 2009, published 2011)
# Peptide text beside a SMILES is read from it. * marks the point of attachment. Cbz = O=C(OCc1ccccc1)*
# B1: Dvl1: Dvl1-EGFP expressed by transfection in HEK293T cells (protein)
# chain: MAETKIIYHMDEEETPYLVKLPVAPERVTLADFKNVLSNRPVHAYKFFFKSMDQDFGVVKEEIFDDNAKLPCFNGRVVSWLVLAEGAHSDAGSQGTDSHTDLPPPLERTGGIGDSRPPSFHPNVASSRDGMDNETGTESMVSHRRERARRRNRDEAARTNGHPRGDRRRDLGLPPDSASTVLSSELESSSFIDSDEEDNTSRLSSSTEQSTSSRLVRKHKCRRRKQRLRQTDRASSFSSITDSTMSLNIITVTLNMERHHFLGISIVGQSNDRGDGGIYIGSIMKGGAVAADGRIEPGDMLLQVNDVNFENMSNDDAVRVLREIVSQTGPISLTVAKCWDPTPRSYFTIPRADPVRPIDPAAWLSHTAALTGALPRYGTSPCSSAITRTSSSSLTSSVPGAPQLEEAPLTVKSDMSAIVRVMQLPDSGLEIRDRMWLKITIANAVIGADVVDWLYTHVEGFKERREARKYASSMLKHGFLRHTVNKITFSEQCYYVFGDLCSNLASLNLNSGSSGASDQDTLAPLPHPSVPWPLGQGYPYQYPGPPPCFPPAYQDPGFSCGSGSAGSQQSEGSKSSGSTRSSHRTPGREERRATGAGGSGSESDHTVPSGSGSTGWWERPVSQLSRGSSPRSQASAVAPGLPPLHPLTKAYAVVGGPPGGPPVRELAAVPPELTGSRQSFQKAMGNPCEFFVDIM
# modifications: left off: large carriers
# notes: Dvl1-EGFP expressed by transfection in HEK293T cells
# B2: sFPR2: a Wnt inhibitor, secreted Frizzled-related protein (protein, UniProt Q96HF1 25-295, looked up)
# Secreted frizzled-related …: LFLFGQPDFSYKRSNCKPIPANLQLCHGIEYQNMRLPNLLGHETMKEVLEQAGAWIPLVMKQCHPDTKKFLCSLFAPVCLDDLDETIQPCHSLCVQVKDRCAPVMSAFGFPWPDMLECDRFPQDNDLCIPLASSDHLLPATEEAPKVCEACKNKNDDDNDIMETLCKNDFALKIKVKEITYINRDTKIILETKSKTIYKLNGVSERDLKKSVLWLKDSLQCTCEEMNDINAPYLVMGQKQGGELVITSVKRWQKGQREFKRISRSIRKLQC
# B3: Wnt7a: recombinant Wnt7a (protein, UniProt O00755 32-349, looked up)
# Protein Wnt-7a: LGASIICNKIPGLAPRQRAICQSRPDAIIVIGEGSQMGLDECQFQFRNGRWNCSALGERTVFGKELKVGSREAAFTYAIIAAGVAHAITAACTQGNLSDCGCDKEKQGQYHRDEGWKWGGCSADIRYGIGFAKVFVDAREIKQNARTLMNLHNNEAGRKILEENMKLECKCHGVSGSCTTKTCWTTLPQFRELGYVLKDKYNEAVHVEPVRASRNKRPTFLKIKKPLSYRKPMDTDLVYIEKSPNYCEEDPVTGSVGTQGRACNKTAPQASGCDLMCCGRGYNTHQYARVWQCNCKFHWCCYVKCNTCSERTEMYTCK
# Columns and labels:
# Format in all cases: cell-based
# [1] = biological target: T1, Fzd3 (Mus musculus, UniProt Q61086); assay: Surface biotinylation and avidin immunoprecipitation of Fzd3 in HEK293T cells; conditions: HEK293T co-transfection, Vgl2 value in the presence of Dvl1
# T1 construct: expressed in transfected cells; host or cells: HEK293T
# T1 sequence (Q61086 23-666): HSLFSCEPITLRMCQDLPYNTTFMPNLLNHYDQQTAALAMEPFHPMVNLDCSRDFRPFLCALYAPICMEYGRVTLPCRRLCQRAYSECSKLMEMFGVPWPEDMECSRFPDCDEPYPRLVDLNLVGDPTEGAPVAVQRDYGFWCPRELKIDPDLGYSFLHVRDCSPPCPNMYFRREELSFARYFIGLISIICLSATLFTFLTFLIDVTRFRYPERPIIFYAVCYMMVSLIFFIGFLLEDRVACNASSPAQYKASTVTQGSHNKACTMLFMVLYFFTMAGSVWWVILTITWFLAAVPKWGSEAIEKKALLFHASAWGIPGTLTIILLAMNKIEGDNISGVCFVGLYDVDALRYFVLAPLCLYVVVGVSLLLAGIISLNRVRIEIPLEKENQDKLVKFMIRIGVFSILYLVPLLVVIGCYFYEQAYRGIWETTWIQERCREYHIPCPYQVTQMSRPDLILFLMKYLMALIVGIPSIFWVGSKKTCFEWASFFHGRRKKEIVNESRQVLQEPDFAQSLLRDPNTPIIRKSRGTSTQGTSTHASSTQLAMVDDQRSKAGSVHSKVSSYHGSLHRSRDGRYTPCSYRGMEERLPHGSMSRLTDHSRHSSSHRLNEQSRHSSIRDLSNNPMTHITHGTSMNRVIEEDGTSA
# Source text: Dvl and Vgl have antagonistic functions on Fzd3 phosphorylation. […] We transfected Fzd3-mCherry in HEK293T cells then surface biotinylated and immunoprecipitated (IP) the surface molecules with strepavidin-conjugated beads to obtain membrane-localized proteins. […] We tested whether these two Fzd3 bands represent phosphorylation states of the Frizzled3 protein, one being phosphorylated/hyperphosphorylated Fzd3 (p-Fzd3) and the other non-phosphorylated Fzd3. […] Phosphorylation of Fzds has been shown previously in Xenopus oocytes
# It has been proposed that Frizzled internalization is necessary for PCP signaling and phenotypes (Gagliardi et al., 2008; Yu et al., 2007). However, it has never been directly tested whether the cell surface level of Fzd, the Wnt-PCP receptor, changes upon Wnt addition. By using our surface biotinylation and immunoprecipitation with avidin, we show here, 15 minutes after Wnt addition, cell surface level of Fzd3-EGFP is diminished (FIG. 18C, Avidin IP, lane 3 anti-EGFP IB). […] This Fzd3 receptor oscillation from and to the membrane appeared to be a Wnt-Fzd specific effect because a non-Wnt binding receptor, such as the Insulin receptor stayed the same throughout the Wnt stimulation (FIG. 18C, Avidin IP, anti-Insulin Rβ IB). The Wnt-dependent Fzd3 oscillation is quantified in FIG. 18D (cross symboled line). […] In addition, PCP components appeared to effect this Wnt dependent oscillation of Fzd3 to and from the membrane. When Dvl1 is over expressed with Fzd3, we found within 30 minutes Fzd3 is unable to be internalized (FIG. 25B, lanes 5-7 and line). However, upon the introduction of Vangl2 into the transfection mix, Fzd3 oscillation is resumed (FIG. 25B, lanes 8-10 and circle symboled line).
# Surface biotinylation and immunopreciptiation. 30 hours after transfection with the indicated constructs into HEK293T cells (FuGene, Roche), followed by 8-hour incubation in Optimem and subsequent bath application of recombinant Wnt5a (R&D Systems), surface proteins were subsequently labeled on ice with 1 mg/ml of Sulfo-NHS-LC-Biotin reagent (Pierce). The cell lysates were collect over a period of 30 minutes on ice in the following lysis buffer: 20 mM Tris pH7.6, 150 mM NaCl, 1% Triton, 0.1% SDS, 2.5 mM EDTA, 2.5 mM EGTA, protease Inhibitors (Roche). For the membrane immunoprecipitation, 600 ug of protein extracts were incubated overnight and retrieved by NeutrAvidin-coated Agarose beads (Pierce), the bound fraction was boiled and loaded on SDS-PAGE gel and analyzed by western blot analysis. To visualize the input amount 20 ug of total lysate was loaded, and for the Avidin IPs the total amount was loaded for western blot analysis. The following primary antibodies were used for the immunoblots: α-Frizzled3 (Wang et al., 2006), α-Vangl2 (Santa Cruz), α-mCherry/DsRed (Clontech), α-Jun (Cell Signaling), α-phospho-Jun (Cell Signaling), α-JNK (Cell Signaling), α-phospho-JNK (Cell Signaling), α-Flag (Sigma), α-GAPDH (Chemicon), α-Insulin Rβ (Santa Cruz).
# [2] = tested on: β-catenin; assay: β-catenin immunostaining in commissural axon growth cones; conditions: bath application; LiCl 2 mM
# Source text: To understand how atypical PKC/Par pathway regulates axon guidance, we set out to determine the subcellular localization of aPKC, their substrates and downstream cellular effectors. […] Thus, our high-resolution confocal imaging detects a tendency of β-catenin being concentrated to one side of the growth cone (FIG. 9A). It is possible that there is low level of Wnt proteins in the culture (many neurons express Wnts). […] Therefore, it is also possible that intrinsic aPKC signaling can create chirality within the growth cone with out extrinsic signals. Such intrinsic polarity may then robustly regulate cellular morphology upon directional instructions from the environment such as a Wnt gradient. It is well known that GSK3β phosphorylates β-catenin, which then leads to proteosome-mediated degradation of β-catenin. And it is also known that GSK3β is phosphorylated and inhibited by PKCζ^(1,2). Therefore, inhibiting GSK3β or the proteosome activity generally should increase β-catenin level throughout the growth cone, canceling the asymmetry. […] We are now testing the hypothesis that Wnt proteins may locally activate PKCζ, which then inhibits GSK3β and locally stabilizes β-catenin, which is part of the asymmetric cellular mechanism leading to directional choice of a growth cone. We examine the localization of β-catenin in post-crossing commissural axon growth cones in the “post-crossing” assay and “open-book” assays.
# [3] = tested on: cortical neurons; assay: Cortical neuron death/survival assay under PKCζ inhibition (Tuj1, TUNEL, DAPI staining); conditions: for cell death induced by PKC inhibition: pretreatment before pseudosubstrate peptide
# Source text: 1. PKCζ is required for survival of cortical neurons. E15.5 cortical neurons were dissociated and cultured for 2 days in the presence of various concentrations of a cell membrane penetrating myristoylated peptide derived in the pseudosubstrate domain of PKC (FIGS. 12A-12D). This peptide is a specific inhibitor of PKCζ.
# 2. Axon degeneration procedes cell body death when PKC is inhibited. We examined the timing of axon degeneration and cell body death. […] The death induced by PKCζ inhibition is much faster than Aβ peptide induced neuronal death (FIG. 12D), probably because the PKCζ is an essential kinase and peptide inhibition causes instant death, whereas Aβ has to bind to cell surface receptor and trigger a signaling cascade to cause death, which requires a longer time.
# 3. Wnts are trophic factors for cortical neurons. […] Nuclear shrinkage (pyknosis) is a hallmark of neuronal cell death. Using DAPI staining, we can visualize the cell nuclei (FIG. 14B). […] Initial cortical axons and dendrite form and grow but axons start to disintegrate at E18.5 (FIG. 14D, from Wang et al 2006),^(13) (FIGS. 12F, 12K). Based on our preliminary results, we propose that Wnts are not only axon guidance molecules but also regulate neuronal survival and axon degeneration acting via PKC (FIG. 15).
# 3. Survival and cell death assays for screening of monoclonal antibodies and small compounds. We use the same cell death/survival assay as described in FIGS. 12A-14D and use microtubule staining to analyze the integrity of microtubules, DAPI stain to measure the size of cell nuclei and TUNEL staining to assay cell death. Microtubule disassembly is quantified by staining intensity of Tuj1 and Tau antibodies. The size of cell nuclei is binned into difference sizes and the distribution of the nuclei size is used as quantification of pyknosis (FIG. 14C).
Molecule,Fzd3 at the membrane relative to Fzd3-mCherry transfected alone [1],β-catenin level and asymmetry in the growth cone [2],cell death induced by PKC inhibition [3],also measured
Vgl2: Vang Gogh Like protein 2 expressed by transfection in HEK293T cells,2 fold,–,–,–
"CC(C)C[C@@H](C=O)NC(=O)[C@H](CC(C)C)NC(=O)[C@H](CC(C)C)NC(=O)OCc1ccccc1 [MG132, reference compound] (Cbz-Leu-Leu-Leu-aldehyde)",–,elevated the level of β-catenin throughout the growth cone,–,–
"[Cl-].[Li+] [LiCl, reference compound]",–,elevated the level of β-catenin throughout the growth cone,block/reduce the cell death,"pyknosis (nuclear shrinkage, DAPI staining, Image J) ([3]; neuronal death induced by PKCζ inhibition): partially blocked"
B1,3 fold,–,–,Fzd3 at the membrane relative to Fzd3-mCherry transfected alone ([1]; listed as Dvl): approximately 3 fold
B2,–,eliminated asymmetric distribution of β-catenin,–,–
B3,–,–,block/reduce the cell death,axon degeneration / reduction of microtubule staining (Tuj1) ([3]; 5 um pseudosubstrate peptide): much less degeneration was seen; axons remaining judged by Tuj1 staining ([3]; 10 um pseudosubstrate peptide): more axons still remain
